The text below walks through data of EP4389150A1, “CONJUGATE COMPOUNDS AND THEIR USE IN CANCER TREATMENT AND DIAGNOSIS” (Technische Universität München, priority 2022, dated 2024).

Like-named read-outs stand apart in the source and are kept apart here. Where a SMILES comes first, the peptide text is derived from it. [ ]: non-standard residue; d: D form. The star is where a group is joined. X1 = CN(Cc1ccc(-c2[nH]c3cc(F)cc4c3c2CCNC4=O)cc1)C(=O)CCS*; EuK = O=C(O)CC[C@H](NC(=O)N[C@@H](CCCCN*)C(=O)O)C(=O)O; Ahx = NCCCCCC(=O)O; Mpa = O=C(O)CCS

Series [1] concerns PC3-PIP/PC3-flu bilateral tumor model. Format: in vivo, Athymic nude mice.
Description: In vivo experiment. Athymic nude mice were subcutaneously injected with 4×10^6 PC3-PIP (PSMA+) and 3×10^6 PC3-Flu (PSMA-) cells to produce a bilateral tumor model.
At the completion of the imaging study, mice were euthanized and organs were resected, weight, and analyzed by gamma counting to determine tracer biodistribution. Data are ported as percentage of injected activity per gram of tissue (%IA/g).
At the completion of the imaging study, mice were euthanized and organs were resected, weighted, and analyzed by gamma counting to determine tracer biodistribution. Biodistribution data are reported as percentage of injected dose per gram of tissue (%ID/g).
Series [2] can be described thus: Lipophilicity, n-octanol/PBS distribution coefficient. The format is physicochemical. The method, then:
Lipophilicity of the conjugates was determine after radiolabeling with ^68Ga. The PSMA ligand (0.80 MBq) was dissolved in PBS (500 µL/pH 7.4) in a reaction vial (1.5 mL; n = 10). Afterwards, n-octanol was added (500 µL) and the mixture was rigorously vortexed for 3 min. Subsequent centrifugation (Biofuge 15, Heraus Sepatech, Osterode, Germany) at 13,000 rpm for 5 min led to a phase separation. After measuring 100 µL of each phase in a γ-counter, the distribution coefficient (logD(O/PBS)) was calculated with Microsoft Excel.

The next series has as its target T1, PSMA (Homo sapiens, UniProt Q04609).
T1 construct: endogenous in cells; host or cells: LNCaP cells
Description: IC50 determination by competition with [68Ga]-PSMA-617 on LNCaP cells. The format is binding. The following applies: [68Ga]-PSMA-617 0.4 nM, 60 min on ice, natGa-labelled ligands. The method, then: In the meantime, dilution series of the compounds were prepared in 1% BSA (w/v)/HBSS in a separate 96 U-bottom deep well plate ranging from 12 µM to 153.6 pM in 1:5 dilution steps. Next, solutions (25 µL/well) of either 1% BSA (w/v)/HBSS (control) or of the respective dilution series were transferred to the LNCaP cells containing plate. Hereby, each concentration was pipetted in triplicates and each experiment was repeated three times. Subsequently, [^68Ga]-PSMA-617 (25 µL/well; 0.4 nM final concentration; AM = 26-30 MBq/nmol) in 1% BSA (w/v)/HBSS was added to all wells and the plate was incubated for 60 min on ice. Afterwards, the experiment was terminated by centrifugation at 600 g for 3 min and removal of the supernatant. The cells were then washed with ice-cold HBSS (150 µL/well), centrifuged (600 g, 3 min), and the supernatant as well as the washing fraction were combined, representing the amount of free, unbound radioligand. Bound radioligand was obtained by lysis of the cells with 1.0 N NaOH (150 µL/well; 10 min on ice). Afterwards, the plate was washed a second time with 1.0 N NaOH (150 µL/well). Hereby, the washing step was combined with the NaOH fraction. The quantification of bound and free radioligand was finally accomplished via measuring the samples in a γ-counter.

A further series has as its system LNCaP cells. Description: Binding and internalization (cell uptake) of 68Ga-labelled PSMA ligands in LNCaP cells. Format: cell-based. The procedure:
To determine ligand internalization, LNCaP cells were seeded in a 96 V-bottom well plate at a density of 100,000 cells/well in 5% BSA (w/v)/RPMI medium (100 µL/well) and incubated for 30 min at 37 °C. Afterwards, solutions (25 µL/well) of either 5% BSA (w/v)/RPMI medium or of 2-PMPA (final concentration: 10 µM) in 5% BSA (w/v)/RPMI medium for blockade were added. Then, a solution of the ^68Ga-labeled PSMA-ligand (25 µL/well; 0.4 nM final concentration; AM = 26-30 MBq/nmol) was added to all wells, and the cells were incubated for 5, 15, 30, and 60 min, respectively, at 37 °C. Hereby, each time point was performed in triplicates and each experiment was repeated three times. The internalization process was terminated by placing the plate for 5 min on ice. The free radioligand was obtained by centrifugation of the plate at 600 g for 3 min and removal of the supernatant. Each well was then washed with ice-cold PBS and the fractions of the first two steps were combined. For removal of cell-bound PSMA-ligand, the cells were treated in a next step with ice-cold 2-PMPA-solution (10 µM in PBS; 150 µL/well; 15 min on ice), centrifuged (600 g, 3 min), and washed with ice-cold PBS (150 µL/well). The fractions were again combined. For the analysis of internalized radioligand, the fractions of a 1.0 N NaOH (150 µL/well; 10 min on ice) treatment as well as a concomitant washing step with 1.0 N NaOH (150 µL/well) were pooled. Free, surface bound, and internalized activity, respectively, was measured in a γ-counter.

Series [3] addresses prostate-specific membrane antigen (PSMA) (UniProt Q04609). The experiment in a line: cell uptake of 68Ga-labelled ligand (0.4 nM) on LNCaP cells, gamma counting.
Series [4] has the same target. The experiment in a line: competition with [68Ga]-PSMA-617 (0.4 nM) on LNCaP cells, 60 min on ice.
Where [5] appears, read: 68Ga-labelled, 2 nmol via tail vein, 60 min p.i.

T1 sequence (Q04609 whole entry): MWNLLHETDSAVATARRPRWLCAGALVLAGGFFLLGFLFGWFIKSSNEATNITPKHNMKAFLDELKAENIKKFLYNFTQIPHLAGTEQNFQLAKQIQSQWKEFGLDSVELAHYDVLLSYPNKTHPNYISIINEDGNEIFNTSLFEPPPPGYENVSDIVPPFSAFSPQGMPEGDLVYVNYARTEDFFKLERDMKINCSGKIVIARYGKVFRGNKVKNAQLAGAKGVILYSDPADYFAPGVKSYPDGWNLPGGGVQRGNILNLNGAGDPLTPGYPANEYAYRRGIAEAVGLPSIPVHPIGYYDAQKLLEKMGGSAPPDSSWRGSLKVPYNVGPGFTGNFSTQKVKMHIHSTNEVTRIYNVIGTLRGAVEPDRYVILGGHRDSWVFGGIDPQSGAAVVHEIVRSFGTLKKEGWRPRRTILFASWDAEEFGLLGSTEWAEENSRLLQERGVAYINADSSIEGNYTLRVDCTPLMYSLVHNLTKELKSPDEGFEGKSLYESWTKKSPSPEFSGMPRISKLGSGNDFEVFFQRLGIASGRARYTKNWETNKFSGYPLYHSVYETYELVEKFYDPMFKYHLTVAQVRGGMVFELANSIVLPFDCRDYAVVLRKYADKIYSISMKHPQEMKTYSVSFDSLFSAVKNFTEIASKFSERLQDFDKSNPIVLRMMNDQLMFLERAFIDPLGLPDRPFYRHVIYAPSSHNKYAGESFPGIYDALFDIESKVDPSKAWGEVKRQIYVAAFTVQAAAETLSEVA
Chain of prostate-specific membrane antigen (PSMA) (Q04609 whole entry): as above

As to `CN(Cc1ccc(-c2[nH]c3cc(F)cc4c3c2CCNC4=O)cc1)C(=O)CCSSCCC(=O)NCCCCN1CCN(CC(=O)O)CCN(C(CCC(=O)N[C@H](CC(=O)O)C(=O)N[C@H](CC(=O)O)C(=O)NCCC(=O)NC[C@H]2CC[C@H](C(=O)N[C@@H](Cc3ccc4ccccc4c3)C(=O)NCCCC[C@@H](NC(=O)CC[C@H](NC(=O)N[C@@H](CCC(=O)O)C(=O)O)C(=O)O)C(=O)O)CC2)C(=O)O)CCN(CC(=O)O)CC1` (single isomer, unassigned) [Conjugate 18], in series [1] (setting [5]), the PiP/muscle ratios is reported as > 25 and the “PiP:Flu ratios” value is > 8. Further, the “tumor uptake (PET/CT, biodistribution)” value in series [1] (PSMA+ PC3-PIP versus PSMA- PC3-Flu tumors, 60 min p.i.) was “selective uptake in PC3-PiP tumors and low uptake in PC3-Flu tumors and other organs”.

Turning to `CN(Cc1ccc(-c2[nH]c3cc(F)cc4c3c2CCNC4=O)cc1)C(=O)CCSSCCC(=O)NC[C@H]1CC[C@H](C(=O)N[C@@H](Cc2ccc3ccccc3c2)C(=O)NCCCC[C@H](NC(=O)N[C@@H](CCC(=O)O)C(=O)O)C(=O)O)CC1` [Conjugate 7], the “logD (n-oct/PBS)” value in series [2] (pH 7.4) is recorded as -2.98 ± 0.21. Besides, the IC50 – broadly, the concentration at which inhibition is half-maximal – on PSMA was 9.52 ± 2.41 nM.

Take `CN(Cc1ccc(-c2[nH]c3cc(F)cc4c3c2CCNC4=O)cc1)C(=O)CCSSCCC(=O)N[C@H](CC(=O)O)C(=O)N[C@H](Cc1ccc(O)cc1)C(=O)N[C@H](Cc1ccccc1)C(=O)N[C@H](Cc1ccccc1)C(=O)NCCCCCC(=O)NCCCC[C@H](NC(=O)N[C@@H](CCC(=O)O)C(=O)O)C(=O)O` [Conjugate 8] ([Mpa](X1)[dD][dY][dF][dF][Ahx]-EuK): in series [2] (pH 7.4), the “logD (n-oct/PBS)” value is given as -2.83 ± 0.07. This compound came in with an IC50 at PSMA of 1.58 ± 0.94 nM.

On to `CN(Cc1ccc(-c2[nH]c3cc(F)cc4c3c2CCNC4=O)cc1)C(=O)CCSSCCC(=O)NCCCC[C@@H](NC(=O)CCC(C(=O)O)N1CCN(CC(=O)O)CCN(CC(=O)O)CCN(CC(=O)O)CC1)C(=O)N[C@H](CC(=O)O)C(=O)NCCC(=O)NC[C@H]1CC[C@H](C(=O)N[C@@H](Cc2ccc3ccccc3c2)C(=O)NCCCC[C@H](NC(=O)N[C@@H](CCC(=O)O)C(=O)O)C(=O)O)CC1` (stereo partly shown) [Conjugate 9], for which, in series [1] (68Ga-labelled, 1 h post-injection), the biodistribution profile entry was “uptake is limited to PSMA+ tumors and kidneys”. The logD in series [2] (pH 7.4) is -2.1 ± 0.24. This compound yielded an IC50 on PSMA of 3.03 ± 0.2 nM. In addition, the “% bound of total applied dose” value with LNCaP cells turned out to be 8.00 ± 1.27%.

As for `CN(Cc1ccc(-c2[nH]c3cc(F)cc4c3c2CCNC4=O)cc1)C(=O)CCSSCCC(=O)NCCCCN1CCN(CC(=O)O)CCN(C(CCC(=O)N[C@H](CC(=O)O)C(=O)N[C@H](CC(=O)O)C(=O)NCCC(=O)NC[C@H]2CC[C@H](C(=O)N[C@@H](Cc3ccc4ccccc4c3)C(=O)NCCCC[C@H](NC(=O)N[C@@H](CCC(=O)O)C(=O)O)C(=O)O)CC2)C(=O)O)CCN(CC(=O)O)CC1` (stereo partly shown) [Conjugate 14], the logD in series [2] (pH 7.4) was -3.42 ± 0.15. The compound further registered an IC50 at PSMA of 2.19 ± 0.37 nM. In the series on LNCaP cells, the “% bound of total applied dose” value was 6.46 ± 0.98%.

Take `CN(Cc1ccc(-c2[nH]c3cc(F)cc4c3c2CCNC4=O)cc1)C(=O)CCSSCCC(=O)NCCCCN1CCN(CC(=O)O)CCN(C(CCC(=O)N[C@H](CC(=O)O)C(=O)N[C@H](CC(=O)O)C(=O)N[C@H](Cc2ccc(O)cc2)C(=O)N[C@H](Cc2ccccc2)C(=O)N[C@H](Cc2ccccc2)C(=O)NCCCCCC(=O)NCCCCCC(=O)NCCCC[C@H](NC(=O)N[C@@H](CCC(=O)O)C(=O)O)C(=O)O)C(=O)O)CCN(CC(=O)O)CC1` (stereo partly shown) [Conjugate 15]: the logD in series [2] (pH 7.4) was -3.4 ± 0.07. The compound also yielded an IC50 on PSMA of 4.28 ± 0.95 nM. Besides, the “% bound of total applied dose” value in the series with LNCaP cells is 6.50 ± 0.50%.

`O=C(O)CC[C@H](NC(=O)N[C@@H](CCCCNC(=O)[C@H](Cc1ccc2ccccc2c1)NC(=O)[C@H]1CC[C@H](CNC(=O)CN2CCN(CC(=O)O)CCN(CC(=O)O)CCN(CC(=O)O)CC2)CC1)C(=O)O)C(=O)O` [PSMA-617]: the logD in series [2] (n-octanol/PBS pH 7.4, after radiolabeling with 68Ga, read-out: logD (n-oct/PBS)) is -3.62 ± 0.49. At PSMA, this compound yielded an IC50 of 1.75 ± 0.16 nM. Besides, in the series with LNCaP cells (60 min incubation with 0.4 nM 68Ga-labelled conjugates), the “% bound of total applied dose” value came to 10.23 ± 0.86%.

The compound PSMA-617 returned a % bound of total applied dose in series [3] of 10.2%.

For the compound “PSMARuc-9: DOTAGA-D-Lys(Ruc-SS)-D-Asp-β-Ala-TXA-L-Nal-KuE (peptide)”, the % bound of total applied dose in series [3] was found to be 8%. Moreover, in series [4], the IC50 came to 3.03 nM.

For the compound “PSMARuc-10: DOTAGA-D-Lys(Ruc-SS)-D-Asp-D-Tyr-D-Phe-D-Phe-Ahx-KuE (peptide)”, the % bound of total applied dose in series [3] stood at 6.18%. Moreover, in series [4], the IC50 was determined as 1.34 nM.

“PSMARuc-11: DOTAGA-D-Lys(Ruc-SS)-D-Asp-D-Tyr-D-Phe-L-Nal-Ahx-KuE (peptide)” displayed a % bound of total applied dose in series [3] of 6.45%. The IC50 in series [4] was 5.34 nM.

Turning to “PSMARuc-12: DOTAGA-D-Lys(Ruc-SS)-D-Asp-D-Tyr-D-Phe-D-Phe-Ahx-Ahx-KuE (peptide)”, the % bound of total applied dose in series [3] stood at 3.48%. This compound displayed an IC50 in series [4] of 2.12 nM.

Consider “PSMARuc-13: DOTAGA-D-Lys(Ruc-Sub)-D-Asp-β-Ala-TXA-L-Nal-KuE (peptide)”, for which the % bound of total applied dose in series [3] was 10.8%. The IC50 in series [4] was 0.67 nM.

“PSMARuc-14: Ruc-SS-MMC-D-Asp-D-Asp-β-Ala-TXA-L-Nal-KuE (peptide)” returned a % bound of total applied dose in series [3] of 6.46%. In series [4], this compound registered an IC50 of 2.19 nM.

Compound “PSMARuc-15: Ruc-SS-MMC-D-Asp-D-Asp-D-Tyr-D-Phe-D-Phe-Ahx-Ahx-KuE (peptide)” showed a % bound of total applied dose in series [3] of 6.5%. The IC50 in series [4] came to 4.28 nM.

With “PSMARuc-16: DOTAGA-D-Lys(Ruc-SS)-D-Asp-D-Asp-β-Ala-TXA-L-Nal-D-Lys-EuE (peptide)”, the % bound of total applied dose in series [3] amounted to 5.32%. This compound also displayed an IC50 in series [4] of 0.82 nM.

Regarding “PSMARuc-17: DOTAGA-D-Lys(Ruc-SS)-D-Asp-D-Asp-D-Tyr-D-Phe-D-Phe-Ahx-D-Lys-EuE (peptide)”, the % bound of total applied dose in series [3] was found to be 5.84%. In series [4], the IC50 was found to be 1.38 nM.

In series [3], “PSMARuc-18: Ruc-SS-MMC-D-Asp-D-Asp-β-Ala-TXA-L-Nal-D-Lys-EuE (peptide)” displayed a % bound of total applied dose of 6.54%. Moreover, the IC50 in series [4] worked out at 0.69 nM.

As for “Ruc-SS-D-Asp-D-Tyr-D-Phe-D-Phe-Ahx-KuE (PSMARuc-8) (peptide)”, in series [4], the half-maximal inhibitory concentration (IC50) turned out to be 1.58 nM.

For the compound “Ruc-SS-TXA-L-Nal-KuE (PSMARuc-7) (peptide)”, in series [4], the IC50 came out at 9.52 nM.
